Several values for one entry are separate records, joined by “and”; a condition that tells them apart may be missing. Identical values can stand only once.
Molecular target: cytochrome c 552 from Thermus thermophilus HB8 (Thermus thermophilus HB8) (UniProt P04164)
UniProt P04164, sequence (P04164 whole entry): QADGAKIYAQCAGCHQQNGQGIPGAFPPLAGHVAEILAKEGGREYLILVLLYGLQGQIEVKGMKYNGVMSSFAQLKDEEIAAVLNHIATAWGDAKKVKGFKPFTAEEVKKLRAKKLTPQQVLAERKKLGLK

Substance | forward rate constant kF of electron transfer with c 552, 4°C, ionic strength 12 mM | reverse rate constant kR of electron transfer with c 552, 4°C, ionic strength 12 mM
recombinant cytochrome c 550 C-terminal domain (c 550[C]) (domain or fragment) | 7e+07 M⁻¹ s⁻¹ | 7e+06 M⁻¹ s⁻¹ and 3e+06 M⁻¹ s⁻¹
recombinant cytochrome c 550 N-terminal domain (c 550[N]) (domain or fragment) | 1e+08 M⁻¹ s⁻¹ | –

— article PMC3561395
